Measured values published in the RNAGym collection of RNA variant scans (doi:10.1073/pnas.2313332121).

B1: TPR t1 (parent)
chain: GACCAAUCUGCCCUCAGAGCUCGAGAACAUCUUCGGAUGCAGAGGAGGCAGGCUUCGGUGGCGCGAUAGCGCCAACGUCCUCAACCUCCAAUGCAUCCCACCACAUGAUGAUGCCUGAAGAGCCUUGGUUUUUUG

Variants of: B1
Test: polymerase ribozyme fitness, log enrichment relative to wild type (log ratio); higher = more active; in vitro selection for triplet polymerase activity
Outline: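 To select mutant libraries of each subunit of a heterodimeric triplet polymerase ribozyme, built by PCR and transcribed, each was annealed with a biotinylated primer, partner subunit and triplets, then incubated frozen at −7 °C. Extended constructs were gel-excised, captured on streptavidin beads and amplified by RT-PCR, in one round carried out in triplicate. Illumina sequencing of input and output libraries kept genotypes with ≥10 input reads and ≥1 read per output. Fitness is the base-2 logarithm of genotype enrichment relative to wild-type enrichment, from inverse-variance-weighted replicate averages.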

| Variant | polymerase ribozyme fitness (log ratio) |
| --- | --- |
| GACCAAUCUGCCCUCAGAGCUCGAGAACAUCUUCGGAUGCAGAGGAGGCAGGCUUCGGUGGCGCGAUAGCGCCAUCGUCCUCAAACUCCAACGCAUCCCACCACAUGAUGAUCCCUGAAGAGCCUUGGUUUUUUG [A75U C85A U92C G113C] | -3.69 |
| GACCAAUCUGCCCUCAGAGCUCGAGAACAUCUUCGGAUGCAGAGGAGGCAGGCUUCGGUGGCGCGAUAGCGCCAUCGUCCUCAACCUCCAAUGCAUCCCACCACAUGAUGAUGCCUGAAGAGCCUUGGUUUUUUG [A75U] | -0.493 |
| GACCAAUCUGCCCUCAGAGCUCGAGAACAUCUUCGGAUGCAGAGGAGGCAGGCUUCGGUGGCGCGAUAGCGCCAGCGUCCUCAACCUCCAAUGCAUCCCACCACAUGAUGAUGCCAUAAGAGUCUUGGUUUUUUG [A75G U116A G117U C123U] | -2.78 |
| GACCAAUCUGCCCUCAGAGCUCGAGAACAUCUUCGGAUGCAGAGGAGGCAGGCUUCGGUGGCGCGAUAGCGCCAAAGUCCUCAACCUCCAAUGCAUCCUACCACAUGAUGAUGCCUGAAUAGCCUUGGUUUUUUG [C76A C99U G120U] | -5.6 |
| GACCAAUCUGCCCUCAGAGCUCGAGAACAUCUUCGGAUGCAGAGGAGGCAGGCUUCGGUGGCGCGAUAGCGCCAAUGUCCUCAACCUCGAAUGCAUCUCACCACAUGAUGAUGCCUGAAGAGCCUUGGUUUUUUG [C76U C89G C98U] | -4.45 |
| GACCAAUCUGCCCUCAGAGCUCGAGAACAUCUUCGGAUGCAGAGGAGGCAGGCUUCGGUGGCGCGAUAGCGCCAAUGUCCUCAACCUCCGAUGCAUCCCACCACAUGAUGAUGCAUGAAGAGCCUUGGUUUUUUG [C76U A90G C115A] | -0.0334 |
| GACCAAUCUGCCCUCAGAGCUCGAGAACAUCUUCGGAUGCAGAGGAGGCAGGCUUCGGUGGCGCGAUAGCGCCAAAGUCCUCAACCUCCAAUGCAUCCCACCACAUGAUGAUGCCUGAGGAGCCUUGGUUUUUUG [C76A A119G] | 0.169 |
| GACCAAUCUGCCCUCAGAGCUCGAGAACAUCUUCGGAUGCAGAGGAGGCAGGCUUCGGUGGCGCGAUAGCGCCAGCGUCCUCAACCUACAAUGCAUCCCACCAAAUGAUGAAGCCUGAAGAGCCUUGGUUUUUUG [A75G C88A C104A U112A] | -1.1 |
| GACCAAUCUGCCCUCAGAGCUCGAGAACAUCUUCGGAUGCAGAGGAGGCAGGCUUCGGUGGCGCGAUAGCGCCAAGGUCCUCAACCUCCAAUGCAUCCCACCACAUGAUGAUGCCUGAAGAGCCUUGGUUUUUUG [C76G] | -0.207 |
| GACCAAUCUGCCCUCAGAGCUCGAGAACAUCUUCGGAUGCAGAGGAGGCAGGCUUCGGUGGCGCGAUAGCGCCAAUGUCCUCAACCUCCAAUGCAUCCCACCACAUGAUGAUGCCUGAAGAGCCUUGGUUUUUUG [C76U] | -0.164 |
| GACCAAUCUGCCCUCAGAGCUCGAGAACAUCUUCGGAUGCAGAGGAGGCAGGCUUCGGUGGCGCGAUAGCGCCAAAGUCCUCAACCUCCAAUGCAUCCCACCACAUGAUGAUGCCUGAAGAGCCUUGGUUUUUUG [C76A] | -0.611 |
| GACCAAUCUGCCCUCAGAGCUCGAGAACAUCUUCGGAUGCAGAGGAGGCAGGCUUCGGUGGCGCGAUAGCGCCAAGGUCCUUAACCUCCAAUGCAUCCCACCACAUGAUGAUGCCUGAAGAGCCUUGGUUUUUUG [C76G C82U] | -0.815 |
| GACCAAUCUGCCCUCAGAGCUCGAGAACAUCUUCGGAUGCAGAGGAGGCAGGCUUCGGUGGCGCGAUAGCGCCAUCGUCCUCAACCUCCAAUGCAUCCCACCAUAAGAUGAUGCCUGAAGAGCCUUGGUUUUUUG [A75U C104U U106A] | -0.439 |
| GACCAAUCUGCCCUCAGAGCUCGAGAACAUCUUCGGAUGCAGAGGAGGCAGGCUUCGGUGGCGCGAUAGCGCCAAAGUGCUCAACCUCCAAUGCAUCCCACCACAUGAUGAUGCCUGAAGAGCCUUGGUUUUUUG [C76A C79G] | -0.726 |
| GACCAAUCUGCCCUCAGAGCUCGAGAACAUCUUCGGAUGCAGAGGAGGCAGGCUUCGGUGGCGCGAUAGCGCCAAGGUCCUCAACCUCCAAUGCAUCCCAACACAUGAUGAUGCCUGAAGAGCCUUGGUUUUUUG [C76G C101A] | -3.2 |
| GACCAAUCUGCCCUCAGAGCUCGAGAACAUCUUCGGAUGCAGAGGAGGCAGGCUUCGGUGGCGCGAUAGCGCCAGCGUCCUCAACCUCCAAUGCAUCCCACCACAUGAUGAAGCCUGAAGAGCCUUGGUUAUUUG [A75G U112A U131A] | 1.22 |
| GACCAAUCUGCCCUCAGAGCUCGAGAACAUCUUCGGAUGCAGAGGAGGCAGGCUUCGGUGGCGCGAUAGCGCCAAUGUCCUAAACCUCCAAUGCAUCCCACCACAUGAUGAUGCCUGAAAAGCCUUGGUUUUUUG [C76U C82A G120A] | 0.131 |
| GACCAAUCUGCCCUCAGAGCUCGAGAACAUCUUCGGAUGCAGAGGAGGCAGGCUUCGGUGGCGCGAUAGCGCCAAGGUCCUCAAACUCCAAUGCAUCCCACCACAUGAUGAUGCCUGAAGAGCCUUGGUUUCUUG [C76G C85A U132C] | -0.689 |
| GACCAAUCUGCCCUCAGAGCUCGAGAACAUCUUCGGAUGCAGAGGAGGCAGGCUUCGGUGGCGCGAUAGCGCCAAAGUCCUCAACCUCUAAUGCAUCCCACCACAUGAUGAUGCCUGAAGAGCCUUGGAUUUUUG [C76A C89U U129A] | -2.51 |
| GACCAAUCUGCCCUCAGAGCUCGAGAACAUCUUCGGAUGCAGAGGAGGCAGGCUUCGGUGGCGCGAUAGCGCCAUCGUCCUCAACUUUCAAUGCAUCCCACCACAUGAUGAUGCCUGAAGAGCCUUGGUUUUUUG [A75U C86U C88U] | 0.294 |
| GACCAAUCUGCCCUCAGAGCUCGAGAACAUCUUCGGAUGCAGAGGAGGCAGGCUUCGGUGGCGCGAUAGCGCCAUCGUCCUCAACCUCCAAUGCAUCCCACCACAUGAUGAUGCCUGAAGAGCCUUGAUUUUUUG [A75U G128A] | -1.64 |
